Experimental findings from US20220324969A1 (MYTHIC THERAPEUTICS, published 2022) are described below.

B1: MYT1238 (antibody, V domains shown)
VH: QVQLQQPGAEVVKPGASVKMSCKASGYTFTSYYIHWIKQTPGQGLEWVGVIYPGNDDISYNQKFHGKATLTADKSSTTAYMQLSSLTSEDSAVYYCAREVRLRYFDVWGQGTTVTVSS
VL: EIVLTQSPGSLAVSPGERVTMSCKSSQSVFFSSSQKNYLAWYQQIPGQSPRLLIYWASTRESGVPDRFTGSGSGTDFTLTISSVQPEDLAIYYCHQYLSSRTFGQGTKLEIK
notes: IgG; IMGN779 VH variant #26 (Q65H)
B2: MYT2624 (antibody, V domains shown)
VH: QVQLQQPGAEVVKPGASVKMSCKASGYTFTSYYIHWIKQTPGQGLEWVGVIYPGNDDISYNQKFQGKATLTADKSSTTAYMQLSSLTSEDSAVYYCAREVRLRYFDVWGQGTTVTVSS
VL: EIVLTQSPGSLAVSPGERVTMSCKSSQSVFHSSSQKNYLAWYQQIPGQSPRLLIYWASTRESGVPDRFTGSGSGTDFTLTISSVQPEDLAIYYCHQYLSSRTFGQGTKLEIK
notes: IgG; IMGN779 VL variant #8 (F31H)
B3: MYT2627 (antibody, V domains shown)
VH: QVQLQQPGAEVVKPGASVKMSCKASGYTFTSYYIHWIKQTPGQGLEWVGVIYPGNDDISYNQKFQGKATLTADKSSTTAYMQLSSLTSEDSAVYYCAREVRLRYFDVWGQGTTVTVSS
VL: EIVLTQSPGSLAVSPGERVTMSCKSSQSVFFSSHQKNYLAWYQQIPGQSPRLLIYWASTRESGVPDRFTGSGSGTDFTLTISSVQPEDLAIYYCHQYLSSRTFGQGTKLEIK
notes: IgG; IMGN779 VL variant #11 (S34H)
B4: MYT1244 (antibody, V domains shown)
VH: QVQLQQPGAEVVKPGASVKMSCKASGYTFTSYYIHWIKQTPGQGLEWVGVIYPGNDDISYNQKFQGKATLTADKSSTTAYMQLSSLTSEDSAVYYCAREVHLRYFDVWGQGTTVTVSS
VL: EIVLTQSPGSLAVSPGERVTMSCKSSQSVFFSSSQKNYLAWYQQIPGQSPRLLIYWASTRESGVPDRFTGSGSGTDFTLTISSVQPEDLAIYYCHQYLSSRTFGQGTKLEIK
notes: IgG; IMGN779 VH variant #32 (R101H)
B5: MYT1245 (antibody, V domains shown)
VH: QVQLQQPGAEVVKPGASVKMSCKASGYTFTSYYIHWIKQTPGQGLEWVGVIYPGNDDISYNQKFQGKATLTADKSSTTAYMQLSSLTSEDSAVYYCAREVRHRYFDVWGQGTTVTVSS
VL: EIVLTQSPGSLAVSPGERVTMSCKSSQSVFFSSSQKNYLAWYQQIPGQSPRLLIYWASTRESGVPDRFTGSGSGTDFTLTISSVQPEDLAIYYCHQYLSSRTFGQGTKLEIK
notes: IgG; IMGN779 VH variant #33 (L102H)
B6: MYT2617 (antibody, V domains shown)
VH: QVQLQQPGAEVVKPGASVKMSCKASGYTFTSYYIHWIKQTPGQGLEWVGVIYPGNDDISYNQKFQGKATLTADKSSTTAYMQLSSLTSEDSAVYYCAREVRLRYFDVWGQGTTVTVSS
VL: EIVLTQSPGSLAVSPGERVTMSCHSSQSVFFSSSQKNYLAWYQQIPGQSPRLLIYWASTRESGVPDRFTGSGSGTDFTLTISSVQPEDLAIYYCHQYLSSRTFGQGTKLEIK
notes: IgG; IMGN779 VL variant #1 (K24H)
B7: MYT2619 (antibody, V domains shown)
VH: QVQLQQPGAEVVKPGASVKMSCKASGYTFTSYYIHWIKQTPGQGLEWVGVIYPGNDDISYNQKFQGKATLTADKSSTTAYMQLSSLTSEDSAVYYCAREVRLRYFDVWGQGTTVTVSS
VL: EIVLTQSPGSLAVSPGERVTMSCKSHQSVFFSSSQKNYLAWYQQIPGQSPRLLIYWASTRESGVPDRFTGSGSGTDFTLTISSVQPEDLAIYYCHQYLSSRTFGQGTKLEIK
notes: IgG; IMGN779 VL variant #3 (S26H)
B8: MYT2620 (antibody, V domains shown)
VH: QVQLQQPGAEVVKPGASVKMSCKASGYTFTSYYIHWIKQTPGQGLEWVGVIYPGNDDISYNQKFQGKATLTADKSSTTAYMQLSSLTSEDSAVYYCAREVRLRYFDVWGQGTTVTVSS
VL: EIVLTQSPGSLAVSPGERVTMSCKSSHSVFFSSSQKNYLAWYQQIPGQSPRLLIYWASTRESGVPDRFTGSGSGTDFTLTISSVQPEDLAIYYCHQYLSSRTFGQGTKLEIK
notes: IgG; IMGN779 VL variant #4 (Q27H)
B9: MYT2621 (antibody, V domains shown)
VH: QVQLQQPGAEVVKPGASVKMSCKASGYTFTSYYIHWIKQTPGQGLEWVGVIYPGNDDISYNQKFQGKATLTADKSSTTAYMQLSSLTSEDSAVYYCAREVRLRYFDVWGQGTTVTVSS
VL: EIVLTQSPGSLAVSPGERVTMSCKSSQHVFFSSSQKNYLAWYQQIPGQSPRLLIYWASTRESGVPDRFTGSGSGTDFTLTISSVQPEDLAIYYCHQYLSSRTFGQGTKLEIK
notes: IgG; IMGN779 VL variant #5 (S28H)
B10: MYT1250 (antibody, V domains shown)
VH: QVQLQQPGAEVVKPGASVKMSCKASGYTFTSYYIHWIKQTPGQGLEWVGVIYPGNDDISYNQKFQGKATLTADKSSTTAYMQLSSLTSEDSAVYYCAREVRLRYFDHWGQGTTVTVSS
VL: EIVLTQSPGSLAVSPGERVTMSCKSSQSVFFSSSQKNYLAWYQQIPGQSPRLLIYWASTRESGVPDRFTGSGSGTDFTLTISSVQPEDLAIYYCHQYLSSRTFGQGTKLEIK
notes: IgG; IMGN779 VH variant #38 (V107H)
B11: MYT1247 (antibody, V domains shown)
VH: QVQLQQPGAEVVKPGASVKMSCKASGYTFTSYYIHWIKQTPGQGLEWVGVIYPGNDDISYNQKFQGKATLTADKSSTTAYMQLSSLTSEDSAVYYCAREVRLRHFDVWGQGTTVTVSS
VL: EIVLTQSPGSLAVSPGERVTMSCKSSQSVFFSSSQKNYLAWYQQIPGQSPRLLIYWASTRESGVPDRFTGSGSGTDFTLTISSVQPEDLAIYYCHQYLSSRTFGQGTKLEIK
notes: IgG; IMGN779 VH variant #35 (Y104H)
B12: MYT1246 (antibody, V domains shown)
VH: QVQLQQPGAEVVKPGASVKMSCKASGYTFTSYYIHWIKQTPGQGLEWVGVIYPGNDDISYNQKFQGKATLTADKSSTTAYMQLSSLTSEDSAVYYCAREVRLHYFDVWGQGTTVTVSS
VL: EIVLTQSPGSLAVSPGERVTMSCKSSQSVFFSSSQKNYLAWYQQIPGQSPRLLIYWASTRESGVPDRFTGSGSGTDFTLTISSVQPEDLAIYYCHQYLSSRTFGQGTKLEIK
notes: IgG; IMGN779 VH variant #34 (R103H)
B13: MYT2626 (antibody, V domains shown)
VH: QVQLQQPGAEVVKPGASVKMSCKASGYTFTSYYIHWIKQTPGQGLEWVGVIYPGNDDISYNQKFQGKATLTADKSSTTAYMQLSSLTSEDSAVYYCAREVRLRYFDVWGQGTTVTVSS
VL: EIVLTQSPGSLAVSPGERVTMSCKSSQSVFFSHSQKNYLAWYQQIPGQSPRLLIYWASTRESGVPDRFTGSGSGTDFTLTISSVQPEDLAIYYCHQYLSSRTFGQGTKLEIK
notes: IgG; IMGN779 VL variant #10 (S33H)
B14: MYT1243 (antibody, V domains shown)
VH: QVQLQQPGAEVVKPGASVKMSCKASGYTFTSYYIHWIKQTPGQGLEWVGVIYPGNDDISYNQKFQGKATLTADKSSTTAYMQLSSLTSEDSAVYYCAREHRLRYFDVWGQGTTVTVSS
VL: EIVLTQSPGSLAVSPGERVTMSCKSSQSVFFSSSQKNYLAWYQQIPGQSPRLLIYWASTRESGVPDRFTGSGSGTDFTLTISSVQPEDLAIYYCHQYLSSRTFGQGTKLEIK
notes: IgG; IMGN779 VH variant #31 (V100H)
B15: MYT2623 (antibody, V domains shown)
VH: QVQLQQPGAEVVKPGASVKMSCKASGYTFTSYYIHWIKQTPGQGLEWVGVIYPGNDDISYNQKFQGKATLTADKSSTTAYMQLSSLTSEDSAVYYCAREVRLRYFDVWGQGTTVTVSS
VL: EIVLTQSPGSLAVSPGERVTMSCKSSQSVHFSSSQKNYLAWYQQIPGQSPRLLIYWASTRESGVPDRFTGSGSGTDFTLTISSVQPEDLAIYYCHQYLSSRTFGQGTKLEIK
notes: IgG; IMGN779 VL variant #7 (F30H)
B16: MYT2618 (antibody, V domains shown)
VH: QVQLQQPGAEVVKPGASVKMSCKASGYTFTSYYIHWIKQTPGQGLEWVGVIYPGNDDISYNQKFQGKATLTADKSSTTAYMQLSSLTSEDSAVYYCAREVRLRYFDVWGQGTTVTVSS
VL: EIVLTQSPGSLAVSPGERVTMSCKHSQSVFFSSSQKNYLAWYQQIPGQSPRLLIYWASTRESGVPDRFTGSGSGTDFTLTISSVQPEDLAIYYCHQYLSSRTFGQGTKLEIK
notes: IgG; IMGN779 VL variant #2 (S25H)
B17: MYT2622 (antibody, V domains shown)
VH: QVQLQQPGAEVVKPGASVKMSCKASGYTFTSYYIHWIKQTPGQGLEWVGVIYPGNDDISYNQKFQGKATLTADKSSTTAYMQLSSLTSEDSAVYYCAREVRLRYFDVWGQGTTVTVSS
VL: EIVLTQSPGSLAVSPGERVTMSCKSSQSHFFSSSQKNYLAWYQQIPGQSPRLLIYWASTRESGVPDRFTGSGSGTDFTLTISSVQPEDLAIYYCHQYLSSRTFGQGTKLEIK
notes: IgG; IMGN779 VL variant #6 (V29H)
B18: MYT2625 (antibody, V domains shown)
VH: QVQLQQPGAEVVKPGASVKMSCKASGYTFTSYYIHWIKQTPGQGLEWVGVIYPGNDDISYNQKFQGKATLTADKSSTTAYMQLSSLTSEDSAVYYCAREVRLRYFDVWGQGTTVTVSS
VL: EIVLTQSPGSLAVSPGERVTMSCKSSQSVFFHSSQKNYLAWYQQIPGQSPRLLIYWASTRESGVPDRFTGSGSGTDFTLTISSVQPEDLAIYYCHQYLSSRTFGQGTKLEIK
notes: IgG; IMGN779 VL variant #9 (S32H)
B19: MYT1248 (antibody, V domains shown)
VH: QVQLQQPGAEVVKPGASVKMSCKASGYTFTSYYIHWIKQTPGQGLEWVGVIYPGNDDISYNQKFQGKATLTADKSSTTAYMQLSSLTSEDSAVYYCAREVRLRYHDVWGQGTTVTVSS
VL: EIVLTQSPGSLAVSPGERVTMSCKSSQSVFFSSSQKNYLAWYQQIPGQSPRLLIYWASTRESGVPDRFTGSGSGTDFTLTISSVQPEDLAIYYCHQYLSSRTFGQGTKLEIK
notes: IgG; IMGN779 VH variant #36 (F105H)
B20: MYT1241 (antibody, V domains shown)
VH: QVQLQQPGAEVVKPGASVKMSCKASGYTFTSYYIHWIKQTPGQGLEWVGVIYPGNDDISYNQKFQGKATLTADKSSTTAYMQLSSLTSEDSAVYYCAHEVRLRYFDVWGQGTTVTVSS
VL: EIVLTQSPGSLAVSPGERVTMSCKSSQSVFFSSSQKNYLAWYQQIPGQSPRLLIYWASTRESGVPDRFTGSGSGTDFTLTISSVQPEDLAIYYCHQYLSSRTFGQGTKLEIK
notes: IgG; IMGN779 VH variant #29 (R98H)
B21: MYT1239 (antibody, V domains shown)
VH: QVQLQQPGAEVVKPGASVKMSCKASGYTFTSYYIHWIKQTPGQGLEWVGVIYPGNDDISYNQKFQHKATLTADKSSTTAYMQLSSLTSEDSAVYYCAREVRLRYFDVWGQGTTVTVSS
VL: EIVLTQSPGSLAVSPGERVTMSCKSSQSVFFSSSQKNYLAWYQQIPGQSPRLLIYWASTRESGVPDRFTGSGSGTDFTLTISSVQPEDLAIYYCHQYLSSRTFGQGTKLEIK
notes: IgG; IMGN779 VH variant #27 (G66H)

Chain of CD33 (Sino Biological, Cat #12238-H08H) (P20138 18-259 limits assumed): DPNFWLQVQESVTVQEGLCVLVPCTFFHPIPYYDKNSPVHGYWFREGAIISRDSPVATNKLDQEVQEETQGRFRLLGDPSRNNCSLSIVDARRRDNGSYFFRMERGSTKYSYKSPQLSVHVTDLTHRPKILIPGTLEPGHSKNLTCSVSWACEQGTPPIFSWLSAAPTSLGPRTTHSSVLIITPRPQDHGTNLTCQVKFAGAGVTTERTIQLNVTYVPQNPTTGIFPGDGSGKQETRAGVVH

The experiment addresses CD33 (Sino Biological, Cat #12238-H08H) (UniProt P20138 18-259). In words: BLI, IgG captured on anti-human Fc sensor, 50 nM CD33, pH 7.4 vs pH 5.4.
Consider B1, for which the binding result is recorded as “binds”. To B2 belongs “binds”. Next, B3: “binds”.

In the case of B4, the binding result is recorded as “binds”.

As to B5, the binding result is reported as “binds”.

Turning to B6, the binding result is on record as “binds”. B7: the binding result is listed as “binds”. With B8, the binding result is “binds”. Next, B9: “binds”; B10: “binds”; B11: “binds”. Regarding B12, the binding result was “binds”. For the molecule B13, the binding result is “binds”. To B14 belongs “binds”; to B15, “binds”.

Take B16: the binding result is reported as “binds”. Turning to B17, the binding result is “binds”. As to B18, the binding result is “binds”. To B19 belongs “binds”; to B20, “binds”; to B21, “binds”.
